The values that follow come from patent publication US20150139999A1 (RUTGERS THE STATE UNIVERSITY OF NEW JERSEY, published 2015).

The assay has as its target T1, B18-FL (Vaccinia virus strain Western Reserve B18 protein with a FLAG epitope at the C terminus, sec (Vaccinia virus strain Western Reserve, UniProt P25213 20-351)).
T1 construct: mature
As to the kind of experiment: covalent crosslinking in solution, SDS-PAGE.

B1: [^32P]-His-Strep-IFN-λ1-P (secreted human IFN-λ1 with N-terminal His-Strep tag and C-terminal phosphorylation site) (ligand)
chain: HHHHHHPDHWSHPQFEKGPVPTSKPTTTGKGCHIGRFKSLSPQELASFKKARDALEESLKLKNWSCSSPVFPGNWDLRLLQVRERPVALEAELALTLKVLEAAAGPALEDVLDQPLHTLHHILSQLQACIQPQPTAGPRPRGRLHHWLHRLQEAPKKESAGCLEASVTFNLFRLLTRDLKYVADGNLCLRTSTHPESTRRASVA
notes: mature; also called His-Strep-IFN-λ1J-P
As for B1, the binding result is reported as “no binding”.
